Experiments:
[1] = tested on: Caspase-8; experiment: Caspase-8 biosensors transfected into HeLa cells, induction with TRAIL; type: cell-based; details: 1 μg/mL TRAIL, 37° C.
From the text: To evaluate whether the mutant thermostable luciferase biosensors of the present invention can be used to detect Caspase-8 activity in cells, biosensors were generated that contained the Caspase-8 cleavage site, LETDG (SEQ ID NO:15). Two different biosensors, TL-CP358-Caspase-8 and TL-CP233-Caspase-8 were used. As controls, the firefly (Photinus pyralis; Ppy) luciferase biosensors FF-CP234-Caspase-8 (M/Ppy residues 234-544/LETDG/Ppy residues 4-230/V), FF-CP359-Caspase-8 (M/Ppy residues 359-544/LETDG/Ppy residues 4-355/V), and TL-CP358-DEVD.
All biosensors were transfected into HeLa cells. Cells were plated at a (10,000/well) into a 96-well tissue culture plate. […]
After overnight incubation, the media was removed from the cells and replaced with CO2 Independent Media (Invitrogen Cat. No. 18045088) with 2 mM Luciferin EF (Promega Cat. No. E6551). Cells were pre-equilibrated with Luciferin EF for 2 hrs in a Varioskan luminometer with bioluminescence readings taken every 20 min. […] The cells were again incubated at 37° C. in a Varioskan luminometer for 500+ min with bioluminescence measured every 20 min.
FIGS. 5 and 7 identify the kinetic profiles of Caspase 8 activation by TRAIL over time at 37° C. […] Fold induction of activation was calculated by dividing the signal of samples with TRAIL over the signals without trail at a given time point. […]

[2] = tested on: caspase-3; experiment: Cell-free (wheat germ) expressed CBS-HT, caspase-3 cleavage reaction, luminescence; type: biochemical; details: WG(HY), MIN. 5
Method: The CBS variant 1A5 was cloned into the vector pFN19K HaloTag® (Promega Cat. No. G1841) to generate a CBS-HaloTag® (CBS-HT) fusion protein (SEQ ID NOs:71 and 72). 20 μl (8 μg) of the CBS-HT vector was added to 30 μl TnT® SP6 High-Yield Wheat Germ Expression System (Promega Cat. No. L3261) and incubated at 25° C. for 90 min.
For the CBS-HT caspase-3 cleavage reaction, one volume of the expression reaction was incubated with an equal volume of either an E. coli lysate containing caspase-3 or C(3) Lysis Buffer (0.8× FastBreak (Promega Cat. No. V857A), 10 mM DTT, 0.1% CHAPS, 0.8 mg/mL Lysozyme, 3 U/μL RQ1 DNase (Promega Cat. No. M610A)) and incubated for 60 min at room temperature. The E. coli lysate containing caspase-3 was prepared from KRX cells overexpressing recombinant caspase-3. Briefly, KRX cells were transformed with pTS1k:caspase-3(T/S). A starter culture (50 mL, LB Broth) was inoculated from a single colony and grown for 17-22 hrs at 37° C. with shaking (275 rpm). The starter culture was diluted (1:50) into fresh media and growth was continued for an additional 3 hrs. The incubation temperature was then lowered to 25° C. and, after 15 min, expression of caspase-3 was initiated by addition of rhamnose (0.2% final concentration). After 2 hr, cells were collected by centrifugation, re-suspended in 50 mL C(3) Lysis Buffer and incubated at ambient temperature (i.e. 22-24° C.) for 10 min. The lysate was clarified by centrifugation (20,000×g for 20 min at 4° C.) and used as the Caspase-3 source.
Cleavage of CBS-HT by Caspase-3 was detected in two different ways: by SDS-PAGE analysis and luminescence detection. […] After electrophoresis, CA-TAM labeled species were detected by fluorescent imaging (ex:532, Em:580; FIG. 17). For detection via luminescence, 40 μL of the cleavage reaction samples were added to 60 μL buffer (50 mM HEPES (pH 7.5) and 100 μL Bright-Glo assay reagent. Luminescence was detected as previously described (Table 7).

[3] = tested on: caspase-3; experiment: CBS-HT (cell-free expressed) immobilized to HaloLink resin, caspase-3 cleavage reaction; type: biochemical
Method: For immobilization to a resin (FIG. 18A), HaloLink resin (25% slurry, Promega Cat. No. G1912) was first equilibrated with HTPB Buffer (50 mM HEPES (pH 7.5), 150 mM NaCl, 1 mM DTT and 0.5 mM EDTA). Resin from one volume of slurry was collected by centrifugation (5 min at 1000×g), and the storage buffer was removed. The resin pellet was re-suspended in 2 volumes of HTPB and mixed. This process was repeated for a total of three HTPB washes. 100 μL of the CBS-HT fusion from Example XI (cell free expression reaction) was mixed with 25 μL washed resin (50% slurry in HTPB) and incubated overnight with mixing at 4° C. Incubation was continued at ambient temperature for 2 hrs. After incubation, the resin was washed to remove un-bound CBS. The resin was split into two 50 μl aliquots, and each aliquot was washed 3 times with HTPB. The final resin pellets were re-suspended in 50 μL HTPB.
For the CBS caspase-3 cleavage reaction, 20 μl of the washed resin was mixed with 20 μL of either E. coli lysate containing caspase-3 or C(3) Lysis Buffer (as in Example XI) and incubated for 30 min at ambient temperature. 60 μl HEPES pH 7.5 was added to the samples, followed by the addition of 100 μl Bright-Glo Assay Reagent. Luminescence was detected as previously described (Table 8 and FIG. 19).

[4] = tested on: caspase-3; experiment: CBS-HT (cell-free expressed) immobilized to HaloTag ligand microtiter plate, caspase-3 cleavage; type: biochemical
Method: For immobilization to a plate (FIG. 18B), a microtiter plate was prepared containing HaloTag® ligand for immobilizing the CBS-HT fusion protein. Briefly, bicarbonate buffer pH 8.5 (100 μL), containing amine-PEG 2000-Cl alkane HaloTag® ligand (0.25 mM (final concentration; PBI 3961 and methoxy-PEG-NH2 (0.75 mM final concentration) were added to wells of a NHS microtiter plate and incubated for 1 hr at room temperature. The wells were then washed 3 times with PBS containing 0.05% Tween-20. After washing, 50 mM ethanolamine was added, and the plates were incubated for 30 min at room temperature and washed again 3 times with PBS containing 0.05% Tween-20. The plate was then stored at 4° C. with PBS containing 0.05% Tween-20 in each well. For the assay, the wells were washed 3 times with 200 μl HPTB. 50 μl CBS-HT cell-free expression reaction (Example XI) was added to the wells, and incubated overnight at 4° C. Following incubation, the plate was washed 3 times with 200 μl PBSI (1×PBS with 0.05% IGEPAL). 100 μL E. coli lysate containing caspase-3 or C(3) lysis buffer (described above) were added and the plate was incubated for 60 min with mixing at room temperature. The wells were then washed with 100 μl PBSI. 100 μL HEPES pH 7.5 and 100 μl Bright-Glo Assay Reagent were added and luminescence was detected as previously described (Table 9).

B1: TL-CP233-Caspase 8: TL Ppe fragments 233-543 and 4-232 with caspase-8 site linker … (SEQ ID NOs:57 and 58) (protein)
chain: MTSAILTVIPFHHGFGMMTTLGYFTCGFRVVLMHTFEEKLFLQSLQDYKVESTLLVPTLMAFLAKSALVEKYDLSHLKEIASGGAPLSKEIGEMVKKRFKLNFVRQGYGLTETTSAVLITPKGDAKPGSTGKIVPLHAVKVVDPTTGKILGPNEPGELYFKGPMIMKGYYNNEEATKAIIDNDGWLRSGDIAYYDNDGHFYIVDRLKSLIKYKGYQVAPAEIEGILLQHPYIVDAGVTGIPDEAAGELPAAGVVVQTGKYLNEQIVQDYVASQVSTAKWLRGGVKFLDEIPKGSTGKIDRKVLRQMLEKHTNGSSLETDGSSGDKNILYGPEPFYPLEDGTAGEQMFDALSRYAAIPGCIALTNAHTKENVLYEEFLKLSCRLAESFKKYGLKQNDTIAVCSENSLQFFLPVIASLYLGIIVAPVNDKYIERELIHSLGIVKPRIVFCSKNTFQKVLNVKSKLKSIETIIILDLNEDLGGYQCLNNFISQNSDSNLDVKKFKPYSFNRDDQVASIMFSSGTTGLPKGVMLTHKNIVARFSIAKDPTFGNAINPV
B1 was tested, and the “detection of Caspase 8 activation by TRAIL” value [1] was “can detect Caspase 8 activation by TRAIL”.

B2: CBS-HT: CBS variant 1A5 fused to HaloTag, expressed in wheat germ extract (SEQ ID NOs:71 and 72) (protein)
chain: MAEIGTGFPFDPHYVEVLGERMHYVDVGPRDGTPVLFLHGNPTSSYVWRNIIPHVAPTHRCIAPDLIGMGKSDKPDLGYFFDDHVRFMDAFIEALGLEEVVLVIHDWGSALGFHWAKRNPERVKGIAFMEFIRPIPTWDEWPEFARETFQAFRTTDVGRKLIIDQNVFIEGTLPMGVVRPLTEVEMDHYREPFLNPVDREPLWRFPNELPIAGEPANIVALVEEYMDWLHQSPVPKLLFWGTPGVLIPPAEAARLAKSLPNCKAVDIGPGLNLLQEDNPDLIGSEIARWLSTLEISGEPTTEDLYFQSDNAIAMPGSTGKIVPLHAVKVVDPTTGKILGPNEPGELYFKGPMIMKGYYNNEEATKAIIDNDGWLRSGDIAYYDNDGHFYIVDRLKSLIKYKGYQVAPAEIEGILLQHPYIVDAGVTGIPDEAAGELPAAGVVVQTGKYLNEQIVQDYVASQVSIAKWLRGGVKFLDEIPKGSTGKIDRKVLRQMLEKHTNGSDEVDGSLKNILYGPEPFYPLEDGTAGEQMFDALSRYAAIPGCIALTNAHTKENVLYEEFLKLSCRLAESFKKYGLKQNDTIAVCSENSLQFFLPVIASLYLGIIVAPVNDKYIERELIHSLGIVKPRIVFCSKNTFQKVLNVKSKLKSIETIIILDLNEDLGGYQCLNNFISQNSDSNLDVKKFKPYSFNRDDQVASIMFSSGTTGLPKGVMLTHKNIVARFSIAKDPTFGNAINPTSAILTVIPFHHGFGMMTTLGYFTCGFRVVLMHTFEEKLFLQSLQDYKVESTLLVPTLMAFLAKSALVEKYDLSHLKEIASGGAPLSKEIGEMVKKRFKLNFVRQGYGLTETTSAVLITPKGV
In the case of B2, the RESPONSE [2] is reported as 441, the BASAL luminescence ([2]; C(3) Lysis Buffer) is reported as 10,494 and the INDUCED luminescence ([2]; E. coli lysate containing caspase-3) is reported as 4,626,173. For the same molecule, the BASAL luminescence ([3]; sample AS) was 29,553, the INDUCED luminescence ([3]; sample AS) was 5,162,108 and the RESPONSE ([3]; sample AS) was 175. For the same molecule, the BASAL luminescence ([3]; sample FT) was 3,170, the INDUCED luminescence ([3]; sample FT) was 232,117 and the RESPONSE ([3]; sample FT) was 73. For the same molecule, the BASAL luminescence ([3]; sample RESIN) was 11,219, the INDUCED luminescence ([3]; sample RESIN) was 1,635,259 and the RESPONSE ([3]; sample RESIN) was 146. For the same molecule, the BASAL luminescence ([4]; MIN. 0) was 66, the INDUCED luminescence ([4]; MIN. 0) was 1,226 and the RESPONSE ([4]; MIN. 0) was 19. For the same molecule, the BASAL luminescence ([4]; MIN. 1) was 16, the INDUCED luminescence ([4]; MIN. 1) was 1,636 and the RESPONSE ([4]; MIN. 1) was 102. For the same molecule, the BASAL luminescence ([4]; MIN. 2) was 106, the INDUCED luminescence ([4]; MIN. 2) was 2,267 and the RESPONSE ([4]; MIN. 2) was 21. For the same molecule, the BASAL luminescence ([4]; MIN. 3) was 66, the INDUCED luminescence ([4]; MIN. 3) was 2,147 and the RESPONSE ([4]; MIN. 3) was 33. For the same molecule, the BASAL luminescence ([4]; MIN. 4) was 126, the INDUCED luminescence ([4]; MIN. 4) was 2,297 and the RESPONSE ([4]; MIN. 4) was 18. For the same molecule, the BASAL luminescence ([4]; MIN. 5) was 126, the INDUCED luminescence ([4]; MIN. 5) was 2,857 and the RESPONSE ([4]; MIN. 5) was 23. For the same molecule, the BASAL luminescence ([4]; MIN. 6) was 76, the INDUCED luminescence ([4]; MIN. 6) was 3,107 and the RESPONSE ([4]; MIN. 6) was 41. For the same molecule, the BASAL luminescence ([4]; MIN. 7) was 56, the INDUCED luminescence ([4]; MIN. 7) was 3,377 and the RESPONSE ([4]; MIN. 7) was 60. For the same molecule, the BASAL luminescence ([4]; MIN. 8) was 136, the INDUCED luminescence ([4]; MIN. 8) was 3,037 and the RESPONSE ([4]; MIN. 8) was 22. The BASAL luminescence ([4]; MIN. 9) was 116, the INDUCED luminescence ([4]; MIN. 9) was 3,667 and the RESPONSE ([4]; MIN. 9) was 32.
